Experimental findings from the Human Domainome abundance scans (Beltran et al. 2025) are described below.

± gives the uncertainty stated by the source.

First the molecules themselves.
B1: F-BAR and double SH3 domains protein 1, residues 467 to 528; numbered along this chain, Q86WN1 (parent)
chain: RALPCPAHVVFRYQAGREDELTITEGEWLEVIEEGDADEWVKARNQHGEVGFVPERYLNFPD

Variants of B1 are the subject of the data set. As to the kind of experiment: abundance fitness (aPCA) (normalised: wild type 0, dead -1); higher = more abundant; growth selection in yeast, the domain comes from the species named. The following applies: Homo sapiens.
As to T22M, the abundance fitness is -0.652 ± 0.088.

Turning to T22S, the abundance fitness was found to be 0.069 ± 0.051.

Turning to T22K, the abundance fitness was -0.686 ± 0.13.

Consider T22C, for which the abundance fitness is -0.265 ± 0.14.

In the case of T22D, the abundance fitness was -0.117 ± 0.097.

As to T22A, the abundance fitness was -0.2 ± 0.054.

Regarding T22I, the abundance fitness was -0.847 ± 0.16.

As for T22P, the abundance fitness is -0.704 ± 0.1.

In the case of T22F, the abundance fitness was -0.742 ± 0.12.

For the variant T22N, the abundance fitness stood at 0.09 ± 0.13.

For T22L, the abundance fitness was -0.778 ± 0.065.

As for T22Y, the abundance fitness was -0.844 ± 0.22.

For the variant T22Q, the abundance fitness is -0.581 ± 0.12.

With E33M, the abundance fitness is -0.266 ± 0.13.

E33K: the abundance fitness is -0.344 ± 0.15.

E33H: the abundance fitness is -0.193 ± 0.077.

Regarding E33N, the abundance fitness was -0.183 ± 0.095.

Consider E33I, for which the abundance fitness is -0.785 ± 0.21.

Consider E33V, for which the abundance fitness was -0.587 ± 0.086.

In the case of E33G, the abundance fitness stood at 0.071 ± 0.078.

On to E33W, for which the abundance fitness was -0.629 ± 0.16.

With E33Y, the abundance fitness is -0.56 ± 0.12.

For E33D, the abundance fitness was -0.156 ± 0.16.

Regarding E33Q, the abundance fitness amounted to 0.051 ± 0.11.

With E33A, the abundance fitness is -0.048 ± 0.07.

E33S: the abundance fitness turned out to be 0.063 ± 0.048.

For E33F, the abundance fitness is -0.725 ± 0.12.

For the variant E33C, the abundance fitness is -0.05 ± 0.09.

For E33T, the abundance fitness is -0.305 ± 0.071.

D36C: the abundance fitness is -0.182 ± 0.11.

Consider D36A, for which the abundance fitness was -0.165 ± 0.077.

Turning to D36W, the abundance fitness stood at 0.006 ± 0.071.

Regarding D36R, the abundance fitness was -0.016 ± 0.05.

Turning to D36L, the abundance fitness was -0.01 ± 0.047.

For the variant D36K, the abundance fitness came to 0.112 ± 0.075.

Regarding D36Y, the abundance fitness was -0.171 ± 0.12.

As to D36G, the abundance fitness was -0.049 ± 0.094.

For the variant D36T, the abundance fitness is -0.042 ± 0.065.

With D36S, the abundance fitness is -0.045 ± 0.053.

D36P: the abundance fitness came to 0.13 ± 0.055.

Take D36H: the abundance fitness is 0.033 ± 0.15.

In the case of D36Q, the abundance fitness worked out at 0.073 ± 0.062.

In the case of D36F, the abundance fitness is 0.005 ± 0.069.

As for D36E, the abundance fitness came out at 0.032 ± 0.072.

As for E30P, the abundance fitness was -0.753 ± 0.12.

As to E30D, the abundance fitness is -0.177 ± 0.093.

On to E30H, for which the abundance fitness was -0.218 ± 0.14.

Take E30L: the abundance fitness is -0.277 ± 0.055.

For E30W, the abundance fitness was -0.185 ± 0.07.

For the variant E30I, the abundance fitness was -0.353 ± 0.14.

For the variant E30T, the abundance fitness was -0.055 ± 0.065.

Consider E30N, for which the abundance fitness was -0.208 ± 0.087.

Take E30C: the abundance fitness is -0.307 ± 0.15.

E30G: the abundance fitness was -0.801 ± 0.09.

Take E30Q: the abundance fitness was -0.02 ± 0.066.

Take E30S: the abundance fitness was -0.125 ± 0.065.

For E30V, the abundance fitness was -0.202 ± 0.045.

As to E30K, the abundance fitness is -0.289 ± 0.099.

On to E30Y, for which the abundance fitness is -0.238 ± 0.099.

In the case of E30R, the abundance fitness is -0.474 ± 0.085.

Turning to L29D, the abundance fitness is -0.642 ± 0.25.

As to L29N, the abundance fitness was -0.577 ± 0.17.

For the variant L29S, the abundance fitness was -0.491 ± 0.096.

With L29W, the abundance fitness is -1.01 ± 0.21.

For L29V, the abundance fitness was 0.102 ± 0.054.

On to L29T, for which the abundance fitness was -0.782 ± 0.15.

With L29C, the abundance fitness is -0.819 ± 0.24.

For the variant L29H, the abundance fitness is -0.6 ± 0.33.

In the case of L29A, the abundance fitness was -0.7 ± 0.12.

For L29F, the abundance fitness was -1.03 ± 0.33.

Take L29K: the abundance fitness is -1.06 ± 0.26.

Take L29G: the abundance fitness is -0.975 ± 0.18.

Consider L29P, for which the abundance fitness is -0.688 ± 0.11.

On to L29I, for which the abundance fitness was -0.004 ± 0.14.

Take L29M: the abundance fitness is -0.508 ± 0.13.

L29R: the abundance fitness was -0.728 ± 0.08.

For the variant E20M, the abundance fitness is -0.475 ± 0.083.

As to E20P, the abundance fitness was -1.01 ± 0.17.

Regarding E20Y, the abundance fitness is -0.548 ± 0.17.

Regarding E20F, the abundance fitness was -0.284 ± 0.078.

Consider E20H, for which the abundance fitness was -0.138 ± 0.13.

In the case of E20T, the abundance fitness is -0.286 ± 0.097.

As to E20K, the abundance fitness was -0.809 ± 0.17.

As to E20S, the abundance fitness was -0.385 ± 0.061.

E20W: the abundance fitness was -0.934 ± 0.14.

In the case of E20V, the abundance fitness was -0.626 ± 0.097.

As for E20I, the abundance fitness was -0.746 ± 0.18.

As to E20G, the abundance fitness was -0.179 ± 0.062.

As for E20R, the abundance fitness was -0.35 ± 0.053.

With E20L, the abundance fitness is -0.769 ± 0.072.

For E20C, the abundance fitness was -0.103 ± 0.079.

On to E20N, for which the abundance fitness is -0.39 ± 0.3.

Consider E20D, for which the abundance fitness was -0.306 ± 0.11.

As to E20A, the abundance fitness is -0.205 ± 0.064.

In the case of E34C, the abundance fitness worked out at 0.008 ± 0.072.

E34F: the abundance fitness came out at 0.127 ± 0.095.

As for E34N, the abundance fitness is -0.016 ± 0.2.

Consider E34R, for which the abundance fitness was -0.044 ± 0.049.

With E34P, the abundance fitness was -0.112 ± 0.072.

For the variant E34S, the abundance fitness was -0.101 ± 0.053.

In the case of E34G, the abundance fitness is -0.17 ± 0.064.

Consider E34Q, for which the abundance fitness is -0.026 ± 0.062.

Turning to E34A, the abundance fitness is 0.017 ± 0.061.

On to E34M, for which the abundance fitness is -0.085 ± 0.063.

As for E34V, the abundance fitness is -0.004 ± 0.062.

Regarding E34H, the abundance fitness is -0.071 ± 0.12.

Take E34W: the abundance fitness is -0.074 ± 0.063.

E34T: the abundance fitness is -0.048 ± 0.067.

Turning to E34L, the abundance fitness is -0.028 ± 0.044.

Consider E34Y, for which the abundance fitness was -0.053 ± 0.14.

For the variant E34D, the abundance fitness is -0.409 ± 0.23.

Regarding E34I, the abundance fitness is -0.165 ± 0.11.

As to E25Y, the abundance fitness is 0.189 ± 0.26.

Take E25L: the abundance fitness was -0.298 ± 0.069.

As for E25R, the abundance fitness was -0.328 ± 0.079.

Turning to E25I, the abundance fitness is -0.348 ± 0.22.

With E25F, the abundance fitness is -0.37 ± 0.16.

As for E25K, the abundance fitness is 0.139 ± 0.074.

On to E25H, for which the abundance fitness was -0.176 ± 0.17.

In the case of E25G, the abundance fitness was -0.281 ± 0.1.

Regarding E25D, the abundance fitness is -0.014 ± 0.17.

In the case of E25W, the abundance fitness is -0.373 ± 0.12.

For the variant E25P, the abundance fitness is -0.069 ± 0.12.

As to E25S, the abundance fitness worked out at 0.104 ± 0.11.

In the case of E25C, the abundance fitness was -0.325 ± 0.17.

For the variant E25T, the abundance fitness stood at 0.038 ± 0.095.

Regarding E25V, the abundance fitness is -0.154 ± 0.12.

For E25Q, the abundance fitness is -0.266 ± 0.24.

For the variant E25A, the abundance fitness is -0.129 ± 0.078.

Take E25M: the abundance fitness is -0.297 ± 0.2.

As for D38I, the abundance fitness was -0.066 ± 0.076.

Consider D38H, for which the abundance fitness was -0.002 ± 0.19.

As to D38A, the abundance fitness amounted to 0.057 ± 0.045.

As for D38F, the abundance fitness was -0.127 ± 0.077.

For D38C, the abundance fitness is -0.047 ± 0.068.

Take D38E: the abundance fitness is 0.101 ± 0.065.

Consider D38G, for which the abundance fitness was 0.023 ± 0.055.

With E27K, the abundance fitness was -0.369 ± 0.12.

Consider E27P, for which the abundance fitness is -0.811 ± 0.14.

Consider E27D, for which the abundance fitness was -0.047 ± 0.16.

For E27V, the abundance fitness is -0.81 ± 0.15.

Consider E27M, for which the abundance fitness was -0.653 ± 0.12.

Regarding E27W, the abundance fitness was -0.911 ± 0.16.

Consider E27Y, for which the abundance fitness was -0.825 ± 0.29.

As to E27T, the abundance fitness is -0.482 ± 0.09.

With E27Q, the abundance fitness was -0.285 ± 0.088.

Consider E27I, for which the abundance fitness was -0.468 ± 0.22.

With E27F, the abundance fitness is -0.795 ± 0.15.

For the variant E27R, the abundance fitness was -0.762 ± 0.099.

Turning to E27S, the abundance fitness is -1.01 ± 0.14.

As to E27L, the abundance fitness is -0.961 ± 0.12.

Consider E27C, for which the abundance fitness was -0.699 ± 0.14.

As for E27A, the abundance fitness was -0.711 ± 0.16.

In the case of A37R, the abundance fitness worked out at 0.141 ± 0.073.

For A37V, the abundance fitness amounted to 0.052 ± 0.052.

Take A37H: the abundance fitness was -0.005 ± 0.13.

Take A37D: the abundance fitness is -0.048 ± 0.13.

Consider A37W, for which the abundance fitness is -0.044 ± 0.064.

On to A37F, for which the abundance fitness is -0.023 ± 0.12.

As for A37I, the abundance fitness is -0.026 ± 0.099.

On to A37M, for which the abundance fitness came to 0.018 ± 0.056.

For A37G, the abundance fitness was -0.05 ± 0.079.

For A37C, the abundance fitness stood at 0.118 ± 0.13.

As to A37K, the abundance fitness was 0.14 ± 0.06.

As for A37P, the abundance fitness is -0.107 ± 0.074.

Regarding A37Q, the abundance fitness stood at 0.071 ± 0.068.

Consider A37T, for which the abundance fitness was determined as 0.014 ± 0.071.
